The labels stand for the following.
B1: Azoarcus group I ribozyme (parent)
chain: GUGCCUUGCGCCGGGAAACCACGCAAGGGAUGGUGUCAAAUUCGGCGAAACCUAAGCGCCCGCCCGGGCGUAUGGCAACGCCGAGCCAAGCUUCGGCGCCUGCGCCGAUGAAGGUGUAGAGACUAGACGGCACCCACCUAAGGCAAACGCUAUGGUGAAGGCAUAGUCCAGGGAGUGGCGAAAGUCACACAAACCGG

Here are results for 83 variants from the RNAGym collection of RNA variant scans (doi:10.1093/molbev/msab373).

The variants in the data set derive from B1. The experiment in a line: reverse-splicing fitness (ratio to wild type); higher = more active; in vitro selection; Mg2+ level not given. An outline of the steps: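 An in vitro group I ribozyme library with randomized positions was T7-transcribed and gel-purified. In triplicate, 10 pmol RNA in EPPS pH 7.5 was reacted with 50 pmoles of a 30-nt RNA substrate for 1 h at 37 °C across several added MgCl2 levels (1–48 mM), then stopped with EDTA. Products were reverse transcribed from a substrate-complementary primer, PCR-amplified and sequenced (HiSeq 4000). Fitness is a variant's read proportion after selection over that before, normalised to wild type.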
With A111U A120C A145C C150U C169G U176A, the reverse-splicing fitness is 0.0171. The same measure for A111U A120C A145C C150U C169G U176G: 0.00481; for A111U A120C A145C C150U C169G U176C: 0.00958. The same measure for A111U A120C A145U C150G C169U U176C: 0.0166.

In the case of A111U A120C A145U C150G C169U U176A, the reverse-splicing fitness was found to be 0.0117. The same measure for A111U A120C A145U C150G C169U U176G: 0.00475; for A111U A120C A145G C150G C169G U176G: 0.00555. For A111U A120C A145G C150G C169G U176C the value was 0.0106; for A111U A120C A145G C150G C169G U176A, 0.0094; for A111U A120C A145U C169A, 0.0103. For A111U A120C A145U C169U the value was 0.168; for A111U A120C A145U C169G, 0.00837. As for A111G C169U U176A, the reverse-splicing fitness stood at 0.0489. The same measure for A111G C169U U176C: 0.0614; for A111G C169U U176G: 0.00769. Turning to A111U A120G A145C C150G U176A, the reverse-splicing fitness worked out at 0.00783.

Turning to A111U A120G A145C C150G U176C, the reverse-splicing fitness amounted to 0.0143. For A111U A120G A145C C150G U176G the value was 0.00302. For A111U A120C C150U the value was 0.348. In the case of A111U A120C C150A, the reverse-splicing fitness was 0.0636.

Turning to A111U A120C C150G, the reverse-splicing fitness came to 0.0482.

For A111U A120G A145C C150A C169A U176C, the reverse-splicing fitness came out at 0.00665.

A111U A120G A145C C150A C169A U176G: the reverse-splicing fitness came out at 0.004. The same measure for A111U A120G A145C C150A C169A U176A: 0.0144; for A111U A120C A145U C150U C169G U176A: 0.0113; for A111U A120C A145U C150U C169G U176C: 0.0102. For A111U A120C A145U C150U C169G U176G the value was 0.00445; for A111U A120C A145C C150A, 0.0343. For the variant A111U A120C A145C C150U, the reverse-splicing fitness was 0.17. The same measure for A111U A120C A145C C150G: 0.0767; for A111U A120C A145G C150G C169A U176G: 0.00732.

For the variant A111U A120C A145G C150G C169A U176A, the reverse-splicing fitness is 0.0117. The same measure for A111U A120C A145G C150G C169A U176C: 0.0123; for A111U A120C A145G C150G C169G: 0.00738; for A111U A120C A145G C150G C169U: 0.0226. For A111U A120C A145G C150G C169A the value was 0.0087; for A111U A120C A145U C150G U176A, 0.0175; for A111U A120C A145U C150G U176G, 0.00473. With A111U A120C A145U C150G U176C, the reverse-splicing fitness was 0.0375. The same measure for A111U A120C A145U C150U U176C: 0.248; for A111U A120C A145U C150U U176A: 0.194; for A111U A120C A145U C150U U176G: 0.0333. For A111U A120C C169A U176G the value was 0.00415; for A111U A120C C169A U176A, 0.0174. The same measure for A111U A120C C169A U176C: 0.017. As for A111U A120C A145G C169A U176A, the reverse-splicing fitness was 0.019. Consider A111U A120C A145G C169A U176G, for which the reverse-splicing fitness came out at 0.0041. For A111U A120C A145G C169A U176C the value was 0.0215. The same measure for A111U A120C A145G C150G U176G: 0.00627. For A111U A120C A145G C150G U176A the value was 0.0125. For the variant A111U A120C A145G C150G U176C, the reverse-splicing fitness worked out at 0.0344. For A111U A120C A145C C150A C169A U176A the value was 0.0101. The same measure for A111U A120C A145C C150A C169A U176G: 0.00536; for A111U A120C A145C C150A C169A U176C: 0.00583. Consider A111U A120C A145U C150G C169G U176C, for which the reverse-splicing fitness is 0.005. The same measure for A111U A120C A145U C150G C169G U176A: 0.00683. For A111U A120C A145U C150G C169G U176G the value was 0.00491.

Take A111U A120G A145C U176A: the reverse-splicing fitness was determined as 0.038. As for A111U A120G A145C U176C, the reverse-splicing fitness turned out to be 0.0455. The same measure for A111U A120G A145C U176G: 0.00566; for A111U A120G A145C C150A C169G: 0.0146; for A111U A120G A145C C150A C169A: 0.00967. The same measure for A111U A120G A145C C150A C169U: 0.0118; for A111U A120C A145C C169U U176G: 0.00517; for A111U A120C A145C C169U U176A: 0.0309. As to A111U A120C A145C C169U U176C, the reverse-splicing fitness came out at 0.0419. For A111U A120G A145C C150A C169U U176G the value was 0.00521; for A111U A120G A145C C150A C169U U176A, 0.0208.

With A111U A120G A145C C150A C169U U176C, the reverse-splicing fitness was 0.0114.

For A111U A120C A145U C150U C169A U176A, the reverse-splicing fitness amounted to 0.0134. For A111U A120C A145U C150U C169A U176C the value was 0.00725; for A111U A120C A145U C150U C169A U176G, 0.0056. For A111U A120C A145G C150A U176A the value was 0.0518; for A111U A120C A145G C150A U176G, 0.013.

Turning to A111U A120C A145G C150A U176C, the reverse-splicing fitness amounted to 0.0785. The same measure for A111U A120C A145C C169G U176A: 0.023. For A111U A120C A145C C169G U176C the value was 0.0106; for A111U A120C A145C C169G U176G, 0.00463. For A111U A120C A145C C150A C169A the value was 0.00677. A111U A120C A145C C150A C169G: the reverse-splicing fitness was determined as 0.00677. The same measure for A111U A120C A145C C150A C169U: 0.013. Consider A111U A120C A145C C150A C169G U176A, for which the reverse-splicing fitness worked out at 0.0194.

For the variant A111U A120C A145C C150A C169G U176C, the reverse-splicing fitness was 0.00889.
